Measurements: patent publication US20230408517A1 (BIO TECHNE, published 2023)
Like-named read-outs stand apart in the source and are kept apart here.

B1: 1035709 (antibody, V domains shown)
VH: EVQLQQSGPELVKPGASVKISCKTSGYTFTEYTMHWVKQSHGKSLEWIGGINPNIVDTGYNQKFKGKATLTVDKSSSTAYMELRSLTSEDSAVYYCARDGYPLYYAMDYWGQGTSVTVSS
VL: DIQMTQSPSSLSASLGERVSLTCRASQEISGYLSWLQQKPDGTIKRLIYAASTLDSGVPKRFSGSRSGSDYSLTISSLESEDFADYYCLQYASYPWTFGGGTKLEIK
B2: 1035762 (antibody, V domains shown)
VH: EVQLQQSGPELVKPGASVKISCKTSGYTFTEYTMHWVKQSHGKSLEWIGGINPNNGDTGYNQKFKGKATLTVDKSSSTAYMELRSLTFEDSAVYYCARDGYPLYYAMDYWGQGTSVTVSS
VL: DIQMTQSPSSLSASLGERVSLTCRASQEISGYLCWLQQKPDGTIKRLIYAASTLDSAVPKRFSGSRSGSDYSLTISSLESEDFADFYCLQYASYPWTFGGGTKLEIK
B3: 1035740 (antibody, V domains shown)
VH: EVLLQQSGPELVKPGASVKIPCKASGYTFTDYNMDWVKQSHGKSLEWIGDINPNNGFTIYNQKFKGKATLTVDKSSSTAYMELRSLTSEDTAVYYCAREGYGNYFDYWGQGTTLTVSS
VL: DVLLTQSPAILSVSPGERVSFSCRASQSIGTSLHWYQQRTNGSPRLLIKYVSESISGIPSRFSGSGSGTDFTLSINSVESEDIADYYCQQSSSWPTTFGAGTKLELK
B4: 1035419 (antibody, V domains shown)
VH: QVQLKQSGAELVRPGASVKLSCKTSGYIFTSYWIHWIKQRSGQGLEWIARIYPGTGSTYNNEKFKGKATLTADKSSSTAYMQLSSLKSEDSAVYFCARGEDNLYFYAMDYWGQGTSVTVSS
VL: NIVLTQSPASLAVSLGQRATISCRASESVDSYGASFMHWCQQKPGQPPKLLIYLASNLESGVPARFSGSGSRTDFTLTIDPVEADDAATYYCQQNYEDPWTFGGGTKLEIK

Columns and labels:
[1] = molecular target: T1, UK variant RBD (R319-F541 with N501Y), C-terminal 6-His (SARS-CoV-2, UniProt P0DTC2 319-541); assay: sandwich dipstick, detector Ab5-AuNP
[2] = molecular target: T2, recombinant SARS-CoV-2 spike S1 RBD (R319-F541), C-terminal 6-His (SARS-CoV-2, UniProt P0DTC2 319-541); assay: sandwich dipstick, detector Ab5-AuNP
[3] = molecular target: T3, BR P.1 variant RBD (R319-F541 with K417T, E484K, N501Y), C-terminal 6-His (SARS-CoV-2, UniProt P0DTC2 319-541); assay: sandwich dipstick, detector Ab5-AuNP
[4] = molecular target: T4, SA variant RBD (R319-F541 with K417N, E484K, N501Y), C-terminal 6-His (SARS-CoV-2, UniProt P0DTC2 319-541); assay: sandwich dipstick, detector Ab5-AuNP
[5] = molecular target: rSARS2 RBD aa319-541, N439K, C-His (SARS-CoV-2, UniProt P0DTC2 319-541); assay: flow cytometry, blocking of binding to hACE-2 cells
[6] = molecular target: rSARS2-B.1.1.7 S aa16-1211 2x aa mut., C-His (SARS-CoV-2, UniProt P0DTC2 16-1211); assay: as above
[7] = molecular target: T3, BR P.1 variant RBD (R319-F541 with …); assay: as above
[8] = molecular target: rSARS2-B.1.617.2 S aa16-1211 10+4x aa mut., C-His (SARS-CoV-2, UniProt P0DTC2 16-1211); assay: as above
[9] = molecular target: T5, IN v2 variant RBD (R319-F541 with L452R, T478K) (SARS-CoV-2, UniProt P0DTC2 319-541); assay: as above
[10] = molecular target: rSARS2-B.1.1.7 S aa16-1211 4x aa mut., C-His (SARS-CoV-2, UniProt P0DTC2 16-1211); assay: as above
[11] = molecular target: T1, UK variant RBD (R319-F541 with N501Y), …; assay: lateral flow NC50, RBD-AuNP vs immobilised ACE2
[12] = molecular target: T2, recombinant SARS-CoV-2 spike S1 RBD …; assay: lateral flow NC50, RBD-AuNP vs immobilised ACE2
[13] = molecular target: T3, BR P.1 variant RBD (R319-F541 with …); assay: lateral flow NC50, RBD-AuNP vs immobilised ACE2
[14] = molecular target: T4, SA variant RBD (R319-F541 with K417N, …); assay: lateral flow NC50, RBD-AuNP vs immobilised ACE2
[15] = molecular target: T2, recombinant SARS-CoV-2 spike S1 RBD …; assay: flow cytometry, blocking of binding to hACE-2 cells
[16] = molecular target: T1, UK variant RBD (R319-F541 with N501Y), …; assay: lateral flow NC50, RBD-AuNP vs immobilised ACE2; remark: listed apart in the source
[17] = molecular target: T2, recombinant SARS-CoV-2 spike S1 RBD …; assay: lateral flow NC50, RBD-AuNP vs immobilised ACE2; remark: listed apart in the source
[18] = molecular target: T478K RBD (R319-F541 with T478K) (SARS-CoV-2, UniProt P0DTC2 319-541); assay: lateral flow NC50, RBD-AuNP vs immobilised ACE2
[19] = molecular target: IN v1 variant RBD (R319-F541 with L452R, E484Q) (SARS-CoV-2, UniProt P0DTC2 319-541); assay: lateral flow NC50, RBD-AuNP vs immobilised ACE2
[20] = molecular target: BR P.2 variant RBD (R319-F541 with E484K) (SARS-CoV-2, UniProt P0DTC2 319-541); assay: lateral flow NC50, RBD-AuNP vs immobilised ACE2
[21] = molecular target: K417E RBD (R319-F541 with K417E) (SARS-CoV-2, UniProt P0DTC2 319-541); assay: lateral flow NC50, RBD-AuNP vs immobilised ACE2
[22] = molecular target: L452R RBD (R319-F541 with L452R) (SARS-CoV-2, UniProt P0DTC2 319-541); assay: lateral flow NC50, RBD-AuNP vs immobilised ACE2
[23] = molecular target: T3, BR P.1 variant RBD (R319-F541 with …); assay: lateral flow NC50, RBD-AuNP vs immobilised ACE2; remark: listed apart in the source
[24] = molecular target: T5, IN v2 variant RBD (R319-F541 with …); assay: lateral flow NC50, RBD-AuNP vs immobilised ACE2
[25] = molecular target: T4, SA variant RBD (R319-F541 with K417N, …); assay: lateral flow NC50, RBD-AuNP vs immobilised ACE2; remark: listed apart in the source
[26] = molecular target: T2, recombinant SARS-CoV-2 spike S1 RBD …; assay: flow cytometry, blocking of binding to hACE-2 cells; remark: listed apart in the source
[27] = molecular target: T1, UK variant RBD (R319-F541 with N501Y), …; assay: sandwich dipstick, detector Ab4-AuNP
[28] = molecular target: T2, recombinant SARS-CoV-2 spike S1 RBD …; assay: sandwich dipstick, detector Ab4-AuNP
[29] = molecular target: T3, BR P.1 variant RBD (R319-F541 with …); assay: sandwich dipstick, detector Ab4-AuNP
[30] = molecular target: T4, SA variant RBD (R319-F541 with K417N, …); assay: sandwich dipstick, detector Ab4-AuNP

Binder	percent blocking [5] [%]	percent blocking [6] [%]	percent blocking [7] [%]	percent blocking [8] [%]	percent blocking [9] [%]	percent blocking [10] [%]	IC50 [11] [µg/mL]	IC50 [12] [µg/mL]	IC50 [13] [µg/mL]	IC50 [14] [µg/mL]	percent blocking [15] [%]	IC50 [16] [µg/mL]	IC50 [17] [µg/mL]	IC50 [18] [µg/mL]	IC50 [19] [µg/mL]	IC50 [20] [µg/mL]	IC50 [21] [µg/mL]	IC50 [22] [µg/mL]	IC50 [23] [µg/mL]	IC50 [24] [µg/mL]	other results
B1	90.8	92.1	90	58.8	5.3	80.7	1.08	0.63	0.7	0.91	94.7	1.08	0.63	1.35	0.66	0.61	0.38	0.92	0.7	2.33	detection sensitivity [1]: 0.001 µg/mL; detection sensitivity [2]: 0.001 µg/mL; detection sensitivity [3]: 0.001 µg/mL; detection sensitivity [4]: 0.001 µg/mL; IC50 [25]: 0.91 µg/mL; percent blocking [26]: 94.7%
B2	42.7	75.7	40.5	18.7	1.5	75.2	0.95	0.69	0.69	0.7	94.1	0.95	0.69	3.77	0.77	0.85	0.49	0.73	0.69	2.57	detection sensitivity [1]: 0.001 µg/mL; detection sensitivity [2]: 0.001 µg/mL; detection sensitivity [3]: 0.001 µg/mL; detection sensitivity [4]: 0.001 µg/mL; IC50 [25]: 0.7 µg/mL; percent blocking [26]: 94.1%
B3	96	94.3	95	89.6	96.5	82.1	1.35	1.43	1.4	1.83	94.6	1.35	1.43	1.21	1.79	1.48	1.09	1.17	1.4	1.61	detection sensitivity [27]: 0.01 µg/mL; detection sensitivity [28]: 0.01 µg/mL; detection sensitivity [29]: 0.01 µg/mL; detection sensitivity [30]: 0.01 µg/mL; IC50 [25]: 1.83 µg/mL; percent blocking [26]: 94.6%
B4	69.3	21.8	8.7	78.5	72.5	33.3	27.6	3.27	44.8	24	90.2	27.6	3.27	9.01	16.5	6.48	1.51	20.6	44.8	33.2	detection sensitivity [27]: 0.01 µg/mL; detection sensitivity [28]: 0.01 µg/mL; detection sensitivity [29]: 0.01 µg/mL; detection sensitivity [30]: 0.01 µg/mL; IC50 [25]: 24 µg/mL; percent blocking [26]: 90.2%
